Assay results taken from patent publication US20220411487A1 (Regeneron, published 2022).
Positions count from the first letter of the chain named. Names and notes keep the numbering of the source.

T1: full length human TMPRSS6 on HEK293 cells (HEK293/hTMPRSS6) (human, UniProt Q8IU80 10-811)
T1 sequence (looked up): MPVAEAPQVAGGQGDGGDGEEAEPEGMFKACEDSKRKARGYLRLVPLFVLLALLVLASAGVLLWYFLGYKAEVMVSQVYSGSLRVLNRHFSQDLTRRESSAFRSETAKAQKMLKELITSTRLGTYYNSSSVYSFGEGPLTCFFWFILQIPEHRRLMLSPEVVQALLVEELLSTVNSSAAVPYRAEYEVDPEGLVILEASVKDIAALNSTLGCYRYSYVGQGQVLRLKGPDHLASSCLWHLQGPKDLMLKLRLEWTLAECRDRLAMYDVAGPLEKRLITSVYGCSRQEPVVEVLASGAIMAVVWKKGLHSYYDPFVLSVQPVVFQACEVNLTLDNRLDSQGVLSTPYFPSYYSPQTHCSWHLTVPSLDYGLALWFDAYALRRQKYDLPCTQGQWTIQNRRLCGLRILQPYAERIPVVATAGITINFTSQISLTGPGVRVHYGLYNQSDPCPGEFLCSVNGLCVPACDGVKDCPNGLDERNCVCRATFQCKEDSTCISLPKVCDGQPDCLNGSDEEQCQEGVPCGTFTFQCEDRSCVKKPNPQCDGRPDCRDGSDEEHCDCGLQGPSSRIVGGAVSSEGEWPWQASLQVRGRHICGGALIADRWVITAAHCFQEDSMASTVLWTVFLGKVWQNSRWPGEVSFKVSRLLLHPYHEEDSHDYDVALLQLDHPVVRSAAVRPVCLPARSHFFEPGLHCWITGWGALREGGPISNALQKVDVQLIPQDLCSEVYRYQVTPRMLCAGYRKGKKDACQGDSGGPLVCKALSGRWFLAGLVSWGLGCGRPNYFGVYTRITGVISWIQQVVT

T2: full length cynomolgous monkey TMPRSS6 on HEK293 cells (HEK293/mfTMPRSS6) (cynomolgous monkey/Macaca fascicularis, UniProt Q8IU80 10-811 (human entry))
T2 chain: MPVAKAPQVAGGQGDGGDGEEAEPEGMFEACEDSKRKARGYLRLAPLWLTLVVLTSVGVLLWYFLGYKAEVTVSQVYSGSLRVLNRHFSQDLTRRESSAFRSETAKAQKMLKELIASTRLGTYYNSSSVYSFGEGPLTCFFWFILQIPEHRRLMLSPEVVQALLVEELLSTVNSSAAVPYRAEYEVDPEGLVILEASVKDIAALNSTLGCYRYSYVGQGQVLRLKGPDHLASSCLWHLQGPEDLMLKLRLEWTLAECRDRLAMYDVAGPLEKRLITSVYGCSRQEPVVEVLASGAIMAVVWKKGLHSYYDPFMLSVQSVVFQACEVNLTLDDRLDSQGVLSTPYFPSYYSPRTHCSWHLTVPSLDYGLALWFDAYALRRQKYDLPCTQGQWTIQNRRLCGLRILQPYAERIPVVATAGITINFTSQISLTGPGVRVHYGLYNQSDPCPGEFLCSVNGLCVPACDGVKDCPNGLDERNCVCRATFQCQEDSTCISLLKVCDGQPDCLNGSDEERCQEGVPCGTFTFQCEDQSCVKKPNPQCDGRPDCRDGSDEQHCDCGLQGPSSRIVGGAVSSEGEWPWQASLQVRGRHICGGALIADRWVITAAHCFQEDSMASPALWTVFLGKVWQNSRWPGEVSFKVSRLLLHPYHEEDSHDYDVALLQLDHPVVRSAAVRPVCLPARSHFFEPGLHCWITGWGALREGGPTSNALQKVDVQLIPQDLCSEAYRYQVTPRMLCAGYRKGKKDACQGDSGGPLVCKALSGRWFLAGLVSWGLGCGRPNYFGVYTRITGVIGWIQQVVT

B1: REGN7977 (antibody, V domains shown)
VH: EVQLVESGGGLVKPGGSLRVSCAASGVTFSNVWMSWVRQVPGKGLEWVGRIKSKTDGGTTDYAAPVKGRFTISKDDSKNTLFLQMNSLKTEDTAVYYCTTETGDFWSGYYPRFQHWGQGTLVTVSS
VL: DIQMTQSPSSLSASVGDRVTITCRASQYISTYLNWYQQKPGKAPSLLIYAASSLQSGVPSRFSGSGSGTDFTLTISSLQPEDFASYSCQQSYSTPPYTFGQGTKLEIKR
notes: fully human; human IgG4 Fc with hinge S108P; also called mAb41465
B2: REGN7999 (antibody, human IgG4 S228P, kappa, V domains shown)
VH: EVQLVESGGGLVQPGGSLRLSCAASGFTFSSYAMTWVRQAPGKGLEWVSAISGSDTSTYYADSVKGRFTISRDNSKNTLFLQMNSLRAEDTAVYYCAKHQDYDFSYYYSAMDVWGQGTTVTVSS
VL: DIQMTQSPSSLSASVGDRVIITCRASQDFNSWLAWYQQKPGKAPKLLIYAASSLQSGVPSRFSGSGSGTDFTLTISSLQPEDFATYYCQQTDSFPFTFGPGTKVDIKR
notes: fully human; human IgG4 Fc with hinge S108P; also called mAb41450
B3: REGN8023 (antibody, human IgG4 S228P, kappa, V domains shown)
VH: EVQLVESGGGLVKPGGSLRISCAASGFIFVDYAMHWVRQAPGKGLEWVSGISWNSGSIGYADSVKGRFTISRDNAKKSLYLQMSGLRPEDTALYYCVKSGFYYVRSYFDNWGQGTLVTVSS
VL: DIVMTQSPLSLPVTPGEPASISCRSSQSLLDSDDGNTYLDWYLRKPGQSPQLLIYTLSYRASGVPDRFSGSGSGTDFTLKISRVEADDVGVYYCMQRIEFPLTFGGGTKVEIKR
notes: fully human; human IgG4 Fc with hinge S108P; also called mAb37699
B4: REGN7974 (antibody, human IgG4 S228P, kappa, V domains shown)
VH: EVQLVESGGGLVQPGRSLRLSCIASGFNFGDYGMSWVRQAPGKGLEWVGFIRSKAYGGTTEYAASVKGRFTISRDDSKSIAYLQMNSLKTEDAAMYYCSRDYYDILTGYYGDYWGQGTLVTVSS
VL: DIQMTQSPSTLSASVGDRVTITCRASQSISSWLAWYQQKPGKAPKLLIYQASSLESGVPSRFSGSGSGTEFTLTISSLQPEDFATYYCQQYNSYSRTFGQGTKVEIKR
notes: fully human; human IgG4 Fc with hinge S108P; also called mAb41422
B5: REGN7969 (antibody, human IgG4 S228P, kappa, V domains shown)
VH: QVQLVESGGGVVQPGRSLRLSCAASGFTFNNYGMHWVRQAPGKGLEWVAIISYDGSNEYYSDSVKGRFTISRDNSKNTLYLQMNSLRAEDTAVYYCARDQDYGGNLFHYWGQGTLVTVSS
VL: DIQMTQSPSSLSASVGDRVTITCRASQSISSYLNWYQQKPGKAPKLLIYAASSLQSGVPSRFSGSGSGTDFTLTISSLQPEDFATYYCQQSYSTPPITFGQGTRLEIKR
notes: fully human; human IgG4 Fc with hinge S108P; also called mAb37746
B6: REGN7971 (antibody, human IgG4 S228P, kappa, V domains shown)
VH: B5 VH with N30S, N31T, E58D, S61L, S85N, R98K, D101G, H108A, Y109S
VL: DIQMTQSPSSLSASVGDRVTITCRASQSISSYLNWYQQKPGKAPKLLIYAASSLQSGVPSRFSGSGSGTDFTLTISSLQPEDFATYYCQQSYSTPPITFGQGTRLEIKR
notes: fully human; human IgG4 Fc with hinge S108P; also called mAb37763

target: T3, hTMPRSS6_S762A-MMH (human, UniProt Q8IU80 77-811); experiment: SPR, mAb captured via anti-hFc, 25 C
T3 construct: also called REGN5330; human TMPRSS6_S762A-MMH
Procedure: The equilibrium dissociation constant (KD) for TMPRSS6 binding to different TMPRSS6 monoclonal antibodies (mAbs) was determined using a real-time surface plasmon resonance biosensor using a Biacore 4000 instrument. All binding studies were performed in 10 mM HEPES, 150 mM NaCl, 3 mM EDTA, and 0.05% v/v Surfactant Tween-20, pH 7.4 (HBS-ET) running buffer at 25° C. and 37° C. The Biacore CM5 sensor chip surface was first derivatized by amine coupling with a human Fc specific mouse mAb to capture different TMPRSS6 mAbs. […] Different concentrations (100 nM to 3.7 nM, 3-fold serial dilution) of the TMPRSS6 reagent proteins prepared in HBS-EP running buffer were injected over the TMPRSS6 mAb captured surface for 150 seconds at a flow rate of 30 μL/min and their dissociation in HBS-ET running buffer was monitored for 10 minutes. At the end of each cycle, the TMPRSS6 mAb captured surface was regenerated using a 12 second injection of 20 mM phosphoric acid.
The association rate (kₐ) and dissociation rate (kd) were determined by fitting the real-time binding sensorgrams to a 1:1 binding model with mass transport limitation using Scrubber 2.0 (BioLogic Software) curve-fitting software. Binding dissociation equilibrium constant (KD) and dissociative half-life (t½) were calculated from the kinetic rates as: […]

Row | Binder | 100 nM Ag Bound [RU] | Kd [nM] | koff [s⁻¹] | kon [M⁻¹ s⁻¹] | t½ [h]
1 | B1 | 159 | 1.69 | 0.000368 | 218000 | 0.517
2 | B2 | 176 | 0.243 | 6.49e-05 | 267000 | 2.97
3 | B3 | 205 | 0.128 | 8.6e-05 | 671000 | 2.23
4 | B4 | 191 | 2.63 | 0.00068 | 259000 | 0.283
5 | B5 | 89 | 0.45 | 0.000182 | 404000 | 1.07
6 | B6 | 103 | 0.322 | 0.000147 | 455000 | 1.32

target: T1, full length human TMPRSS6 on HEK293 …; experiment: cell-based or functional assay

Row | Binder | % inhibition, HEK293 bioassay, 30 min pre-incubation 25 C [%] | IC50, HEK293 bioassay, 30 min pre-incubation 25 C [nM]
7 | B1 | 86 | 3.6
8 | B2 | 86 | 3
9 | B3 | 90 | 0.36
10 | B4 | 86 | 5.1
11 | B5 | 87 | 1.9
12 | B6 | 86 | 0.97

Target: T2, full length cynomolgous monkey TMPRSS6 …
Experiment: cell-based or functional assay

Row | Binder | % inhibition, HEK293 bioassay, 30 min pre-incubation 25 C [%] | IC50, HEK293 bioassay, 30 min pre-incubation 25 C [nM]
13 | B1 | 87 | 8.1
14 | B2 | 90 | 6.5
15 | B3 | 94 | 0.66
16 | B4 | 81 | 30
17 | B5 | 87 | 8.8
18 | B6 | 87 | 3.1

target: T1, full length human TMPRSS6 on HEK293 …; experiment: flow cytometry, HEK293 cells expressing target
Procedure: To assess the binding of anti-TMPRSS6 antibodies of the present disclosure to the receptor expressed on the cell surface, antibodies (including an IgG subclass control) were serially diluted in assay buffer (PBS without Ca⁺⁺ and Mg⁺⁺ containing 2% FBS) from 375 nM to 22.9 pM (plus a sample containing assay buffer alone without test molecule) and incubated with 0.5×10⁶ cells/well at 4° C. for 30 minutes in assay buffer. […] Cells were fixed using BD CytoFix™ (Becton Dickinson, #554655) and analyzed on either the IQue® or IQue®Plus Flow Cytometers (Intellicyt®). Unstained and secondary antibody alone controls were also tested for all cell lines. The results were analyzed using ForeCyt® (IntelliCyt®) software to determine the geometric means of fluorescence for viable cells and binding ratio was calculated by normalizing the geometric mean value of the test condition by the geometric mean value of the corresponding unstained cells.

Row | Binder | EC50 [nM] | Max. Fold Binding
19 | B1 | 1.9 | 69 fold over unstained control
20 | B2 | 2.2 | 50 fold over unstained control
21 | B3 | 0.7 | 47 fold over unstained control
22 | B4 | 2.4 | 54 fold over unstained control
23 | B5 | 0.67 | 52 fold over unstained control
24 | B6 | 0.97 | 66 fold over unstained control
